# Literature values as cited in patent US20220089455A1, “METHOD FOR PRODUCING NANOPARTICLE HAVING METAL PARTICLE WHICH CONTAINS IRON OXIDE TO WHICH ONE OR MORE HYDROPHILIC LIGANDS ARE COORDINATION BONDED” (ASTELLAS PHARMA INC., priority 2018, published 2022).
# Conditions: standard used for SEC comparison
molecule,measurement,value
"ovalbumin (protein, UniProt P01012 2-386, looked up) Ovalbumin: GSIGAASMEFCFDVFKELKVHHANENIFYCPIAIMSALAMVYLGAKDSTRTQINKVVRFDKLPGFGDSIEAQCGTSVNVHSSLRDILNQITKPNDVYSFSLASRLYAEERYPILPEYLQCVKELYRGGLEPINFQTAADQARELINSWVESQTNGIIRNVLQPSSVDSQTAMVLVNAIVFKGLWEKAFKDEDTQAMPFRVTEQESKPVQMMYQIGLFRVASMASEKMKILELPFASGTMSMLVLLPDEVSGLEQLESIINFEKLTEWTSSNVMEERKIKVYLPRMKMEEKYNLTSVLMAMGITDVFSSSANLSGISSAESLKISQAVHAAHAEINEAGREVVGSAEAGVDAASVSEEFRADHPFLFCIKHIATNAVLFFGRCVSP",particle diameter of the standard,6.1 nm
